Data: the DeepSol protein solubility set

Test: soluble on expression in E. coli; label from the status in PepcDB or PDB records

Row | Sequence | soluble on expression in E. coli
1 | MSLYNDSLFNAFARSFEARSQHDMSMAEYLESCRSDPMKYANAAERLLAAIGEPQTIDTAKDPRLGRIFLNRTIRTYPAFAGFYGMEETIERIVGFFRHAAQGLEERKQILYLLGPVGGGKSSLAERLKSLMEVHPIYVLKAGDELSPVFESPLSLFDPDQLGPMLEEKYGIPRRRLTGLMSPWCYKRLEAFGGDISQFRVAKIQPSRLRQIAIAKTEPGDENNQDISSLVGKVDIRKLETYAQNDPDAYSYSGGLNRANQGILEFVEMFKAPIKMLHPLLTATQEGNYIGTENIGAIPFTGIILAHSNEAEWASFKANKNNEAFIDRICVIKVPYVLRVTEEQKIYEKLIQGSELASAPCAPSTLETMARFSVMSRLRKHENSTVFGKMRVYDGESLKESDPKARSVQEYRDAAGVDEGMDGVSTRFAFKILAATFNHDPQEVAADAVHLMYALEQSIKREQLPEEVEKRYLEFIKADLAPRYAEFIGNEIQKAYLESYSDYGQNLFDRYVDYADAWIEDQDFKDPDTGQLLDRELLNQELTKIEKPAGIANPKDFRNEVVKFSLRSRAQNGGKNPTWTSYEKIRDVIEKRIFSQVEDLLPVISFGSKKDGETEKKHGEFVARMVERGYTERQVRRLVEWYMRVKQAGEGHHHHHH | soluble
2 | MPNTPHTMNLYIKNIAQLVTCQGSEAKHGREAMGQIHTIEGPAAVVIRDGIIAFAGRMADVAPSMTEGCRELDATGRCVLPGFVDSHTHLVFGGYREDEFQWRLAGDSYMSIMERGGGIASTMRATRSESEDELKASARRHLSNMMKMGVTTVEAKSGYGMNLETELKQLRVVRDLQDEQPLDLYSTFMGAHDTAPEYKGRPTEFIEYLCREVLPEVVRQNLAECCDIFTEKGVFDHEQTRRMLTAAKEAGLSVKMHADEIVPFGGAELAAELGCLSADHLLRISDAGIKALAESNTVATLLPCTAFSLRADYAPARKMIDAGCAVALGSDLNPGSCFSASVPLMFALATLYMGMTVEEAITALTINGAAAIGRADTIGSIEPGKKGDLVVLQYPSYKFLSYHFGMNLVEHTVKGGRVVYTNS | not soluble
3 | MKVLFLTANEFEDVELIYPYHRLKEEGHEVYIASFERGTITGKHGYSVKVDLTFDKVNPEEFDALVLPGGRAPERVRLNEKAVSIARKMFSEGKPVASICHGPQILISAGVLRGRKGTSYPGIKDDMINAGVEWVDAEVVVDGNWVSSRVPADLYAWMREFVKLLK | soluble
4 | MQHFSRSVALLALSAGTLTSLPALAADELHYNQISLRAEVSQEVARDLMIVTLYSESQNTDPAKLAAEITTTMNKALDQARQVKDVTLRQGSRNSYPIYDGKGQKITGWRERAELRLESSDFAALSKLTGELLGDLKMGGMDFAIADPTRKASEDALLKDAVKAFKARAQLATEALGGKGYKIVNLNLNSNGYPQPYMRAPMMMKAASMDSAPVTPEVEAGTSQVSMTADGAIEVLMPLEHHHHHH | soluble
5 | LSITTPEQRIEKAKGETAYLPCKFTLSPEDQGPLDIEWLISPSDNQIVDQVIILYSGDKIYDNYYPDLKGRVHFTSNDVKSGDASINVTNLQLSDIGTYQCKVKKAPGVANKKFLLTVLVKPSGTRCFVDGSEEIGNDFKLKCEPKEGSLPLQFEWQKLSDSQTMPTPWLAEMTSPVISVKNASSEYSGTYSCTVQNRVGSDQCMLRLDVVPPS | soluble
6 | MILDSQLAQQIVDRTMAIIGYNINVMNQAGVIIGSGEKNRIGQVHDGAILALKHGDSVELTAESCVALKGVKPGINMVLRNQQQVVGIVGITGEPKDIRDFANLVKMSAEMIIEQAALVEQLQWDRRHREEFISAWIHNTLSAAELDAWAARLSIDLSKPRVAVVIAFRQPKSGQSLDQIRQVVELLEHPERDNLVAVVSMQEIVVLKPCRTPEHWTSEYESLRIDKLMARLKAYDITGYDIALGQLFINPNAIHLSYQSAKQVLRIGQVRQPEKQKHLYEELRLPVLLLPLNEGWQGEQWRRVMQELQTQDKSGQLVKTLKGLFAANGNLNLCAQQLFIHRNTLRYRLEKITEITGIETNSLLGLAELYIAYQLTSYD | soluble
7 | MKKYTCTVCGYIYNPEDGDPDNGVNPGTDFKDIPDDWVCPLCGGGKDQFEEVEE | soluble
8 | MAPVKLYMVEVIDKKEIAANERRSRENDVTGPEITHYYQVTFRLTTDDRKDLVLNIDKSSYQNIEPEMKGRLFMQGSRFVQFETDVPIDEQKLEHHHHHH | soluble
9 | FEPDDVTEDVIEWVYSTFDGSYDEQPFGGDWTDPEPFRWPVTRRQAVQALDHFVTNRLTEFGSYQDAMLEDEWAMSHSLLSTSLNLGLLGPAEVIERAITAYEDGDAPLNSVEGFIRQVLGWREFLRHVYRREM | not soluble
10 | MSLEPTAPSLTEEDLTEVKKDALENLRVYLCEKIIAERHFDHLRAKKILSREDTEEISCRTSSRKRAGKMLDYLQENPKGLDTLVESIRREKTQNFLIQKITDEVLKLRNIKLEHLKGLKCSSCEPFPDGATNNLSRSNSDESNFSEKLRASTVMYHPEGESSTTPFFSTNSSLNLPVLEVGRTENTIFSSTTLPRPGDPGAPPLPPDLQLEEEGTCANSSEMFLPLRSRTVSREGHHHHHH | not soluble
11 | MYNSKQFLRTVNWHFVNSCNMSCKYCFVSCCKELPLEESISVLEKLKGHFDRINFVGGEPTVSSKLIPLVKKAKEYGFIVSMVTNGFNLYHKPETFDEILTDFSIIGISIDSLNENTNVLIGRSVKNSVLSRDDYIDLCKKIKLAGCKLKINTVVSRVNLDENFNDFYETVMPDRIKLLQVLRPAGRLKQDYTDFLIEEDDYLEFVQRHHKFSEVICSENNELMLNSYYILNSDACFLDNKSGCISGSLLENDLKSVLKNVYVDENKYRARYA | not soluble
12 | MKILLVFDFDNTIIDDNSDTWIVQCAPNKKLPIELRDSYRKGFWTEFMGRVFKYLGDKGVREHEMKRAVTSLPFTPGMVELFNFIRKNKDKFDCIIISDSNSVFIDWVLEAASFHDIFDKVFTNPAAFNSNGHLTVENYHTHSCNRCPKNLCKKVVLIEFVDKQLQQGVNYTQIVYIGDGGNDVCPVTFLKNDDVAMPRKGYTLQKTLSRMSQNLEPMEYSVVVWSSGVDIISHLQFLIKD | not soluble
13 | CIGLVNPKTPENVGSVMRAAGCYGVNSVFYTGKRYDIAKQFCTDTKSQHLNLPLIGVEDLRDIVPLDCVPVAVDLIEGAKPLPDYKHPPRAFYIFGPEDGTLKKEITDFCRETIYVPTNGCMNLAAAVNVIMYDRMAK | not soluble
14 | MVSAPSIDTPSATTFDFDSSVFKKEKVTLSGHDEYIVRGGRNLFPLLPDAFKGIKQIGVIGWGSQAPAQAQNLKDSLTEAKSDVVVKIGLRKGSNSFAEARAAGFSEENGTLGDMWETISGSDLVLLLISDSAQADNYEKVFSHMKPNSILGLSHGFLLGHLQSLGQDFPKNISVIAVCPKGMGPSVRRLYVQGKEVNGAGINSSFAVHQDVDGRATDVALGWSIALGSPFTFATTLEQEYKSDIFGERGILLGAVHGIVECLFRRYTESGMSEDLAYKNTVECITGVISKTISTKGMLALYNSLSEEGKKDFQAAYSASYYPSMDILYECYEDVASGSEIRSVVLAGRRFYEKEGLPAFPMGKIDQTRMWKVGEKVRSVRPAGDLGPLYPFTAGVYVALMMAQIEILRKKGHSYSEIINESVIEAVDSLNPFMHARGVSFMVDNCSTTARLGSRKWAPRFDYILSQQALVAVDNGAPINQDLISNFLSDPVHEAIGVCAQLRPSVDISVTADADFVRPELRQA | soluble
15 | MKLVCISDTHSLHRRIPEIPDGDVLIHAGDSLGQGSLENIEDLNDWLGTLPHRHKIVIAGNHDWAFQEMPGEARTALSNAVYLEDSGVEIEGNRFWGSPWTPTFMDWAFMLERGEPLYQKWQLVPDNTDVLITHGPPKGIGDEANLGFKCQNVGCVDLLARIHQLSLKAHIFGHIHEGYGEYLRGKTRLINASTCTARYEPRNAPIVVDVLEHHHHHH | not soluble
16 | MKSEILQQIKQYETIILHRHVRPDPDAYGSQMGLAEIIRASFPEKKVYSVGNDEVSLQFLGAVDEIADEVYKDALVIVCDTANQERVSDVRFSSGQKLIKIDHHPNDDAYGDLLWVDTTASSCSEMIVAFWETFSDELILNETAARLLYAGIVGDTGRFLYPSTTEETLRLSAHLVTFPFDRPALYRELYELPKNTVKLSGYILQNFVMDENGAATVYLSDTLLREFEVDPRDASALVSCIENVEGIKAWIMFIQEGPVFRARLRSKGPVINELAKEYGGGGHPLASGATLHNEEEIKEMTVKLARICAAKLEHHHHHH | soluble
17 | MGSSHHHHHHSSGLVPRGSHMNQDPTQQLEPFLKRFLASLDLLYTQPTSQPFPNVESYATQLGSNLKRSSAIIVNGQPIIPSPQEDCKLQFQKKWLQTPLSSHQLTSYDGHLIPGTGTFVVHFSAKVRFDQSGRNRLGESADLFQENNSIVSKTNQRPIWGSWFGVDVNLVVDENVMQDGEIINSMDYRFTYVPNDSIIKV | soluble
18 | VEPVPDTHLRGITCLDHENEKVNMYCVSDDQLICALCKLVGRHRDHQVASLNDRFEKLKQTLEMNLTNLVK | soluble
19 | SNRLDGKVAIITGGTLGIGLAIATKFVEEGAKVMITDRHSDVGEKAAKSVGTPDQIQFFQHDSSDEDGWTKLFDATEKAFGPVSTLVNNAGIAVNKSVEETTTAEWRKLLAVNLDGVFFGTRLGIQRMKNKGLGASIINMSSIEGFVGDPSLGAYNASKGAVRIMSKSAALDCALKDYDVRVNTVHPGYIKTPLVDDLPGAEEAMSQRTKTPMGHIGEPNDIAYICVYLASNESKFATGSEFVVDGGYTAQ | soluble
20 | MGSDKIHHHHHHMSRTITIDPVTRIEGHATITIRLDDAGSVADARLHVTEFRGFEAFCVGRSIWEMPGITARICGICPISHSIASARAGDAILGVDIPPAAEQLRRIANLASLIQSHALSFFHLCAADLLLGMDHDPSRRSLWGLLESRPDVARRGIRLRQIGQQIVSNLAGERVHPSWAVPGGVREPLDAERRRKVVELLPEGIAIIRSAFELLDEIYGRHGAEVGTYGDFPSLFAGLVGEDGGLEHYDGMLRFTDSSGAVVEEVPPDHYDLAIGERSEPWSYMKFPFYRNHAGRDGGGMFRVGPLARLNLCERAGTPEADRELQTFRQLRGTGGVVTGSFHYHHARLIEILHALERIGELLDDPAILDRHVRSEAGVNRRHGVGFCEAPRGTLFHDYEVDDDGLILRLNLLIATGQNNLAMNRTILEVARSHIKGGKVSEGILNRIEHGIRAYDPCLSCATHVYGRMPFQVLLLAPDGTVVDEIAS | not soluble
21 | MKIRVADEKELPMILQFLTEVKAYMDVVGITQWTKDYPSQGDIQEDITKKRLYLLVHEEMIFSMATFCMEQEQDFVWLKRFATSPNYIAKGYGSLLFHELEKRAVWEGRRKMYAQTNHTNHRMIRFFESKGFTKIHESLQMNRLDFGSFYLYVKELENQSIV | soluble
22 | MRGSHHHHHHGSIQKTTIAADSSSKPRGINYDTGIPFNVLIVDDSVFTVKQLTQIFTSEGFNIIDTAADGEEAVIKYKNHYPNIDIVTLDITMPKMDGITCLSNIMEFDKNARVIMISALGKEQLVKDCLIKGAKTFIVKPLDRAKVLQRVMSVFVK | soluble
23 | MGSDKIHHHHHHAQTPVEKGLKSINRQAAEAYIGFLADDELQGREAGFHGSRVAARYIASLLKEMGIRPLGESYYQPFDAYRKERQQKGRLEVHPDSIAKLKQVVHQKLSMNNVLGMIPGKKTNEYVIVGAHFDHLGIDPALDGDQIYNGADDNASGVSAVLQIAKAFVVSGQQPERNVIFAFWDGEEKGLLGSKYFVQECPFINQVKGYLNFDMIGRNNQPQNPKHVVYFYTEANPAFGRWLKEDIKKYGLQLEPNYRPWDKPVGGSDNGSFAKAGIPIIWYHTDGHPDYHQPSDHADRLNWDKVVEISKASFLNVWNLANEKDY | not soluble
